Results: paper PMC5445624

Key:
MBP-RNF4(WT) = MBP-RNF4(WT) (UniProt O88846); assay: GST pulldown; details: for ratio to parent: parent: est. 1.0, read off a plot
[1] = target: GST-ETV4(1-335)(WT) SUMOylated with wild-type SUMO3, P28322;P55854; assay: GST pulldown; details: printed grade '++' (legend: ≥50% of RNF4(WT)); parent: +++ (≥80%)

GST-ETV4(1-480)(WT) modified with SUMO3(WT) (from UniProt P28322;P55854) K96R; K222R; K256R; K328R
response (% bound relative to input) (MBP-RNF4(WT); ETV4 co-expressed in bacteria with SUMO3(WT), lane 1, parent: 60): 12 | ratio to parent (MBP-RNF4(WT); ETV4 co-expressed with SUMO3(WT)): 0.03

GST-ETV4(1-480)(WT) modified with SUMO3(K11R) (from UniProt P28322;P55854) K96R; K222R; K256R; K328R
response (% bound relative to input) (MBP-RNF4(WT); ETV4 co-expressed in bacteria with SUMO3(K11R), lane 5, parent: 49): 3 | ratio to parent (MBP-RNF4(WT); ETV4 co-expressed with SUMO3(K11R)): 0.05

MBP-RNF4(WT) (from UniProt O88846) SIM1,2mut
percent of parent (% of RNF4(WT)) [1]: 50
